# Measurements taken from patent US20230071371A1 (Scripps Research, published 2023).
# Bridges are numbered along the chain shown (N, C = ends). Where no end group is shown, it is not given here. [ ]: non-standard residue; d: D form. hArg = N=C(N)NCCCC[C@H](N)C(=O)O; staple K20 = not defined here; staple K4 = not defined here; staple K5 = not defined here; staple K6 = not defined here; staple K7 = not defined here; staple K8 = not defined here; staple K9 = not defined here; Nle = CCCC[C@H](N)C(=O)O; L1 = not defined here; L3 = not defined here; L4 = not defined here; L5 = not defined here; L6 = not defined here; Aib = CC(C)(N)C(=O)O
# T1: human GIPR (human, UniProt P48546 22-466)
# T1 sequence (looked up): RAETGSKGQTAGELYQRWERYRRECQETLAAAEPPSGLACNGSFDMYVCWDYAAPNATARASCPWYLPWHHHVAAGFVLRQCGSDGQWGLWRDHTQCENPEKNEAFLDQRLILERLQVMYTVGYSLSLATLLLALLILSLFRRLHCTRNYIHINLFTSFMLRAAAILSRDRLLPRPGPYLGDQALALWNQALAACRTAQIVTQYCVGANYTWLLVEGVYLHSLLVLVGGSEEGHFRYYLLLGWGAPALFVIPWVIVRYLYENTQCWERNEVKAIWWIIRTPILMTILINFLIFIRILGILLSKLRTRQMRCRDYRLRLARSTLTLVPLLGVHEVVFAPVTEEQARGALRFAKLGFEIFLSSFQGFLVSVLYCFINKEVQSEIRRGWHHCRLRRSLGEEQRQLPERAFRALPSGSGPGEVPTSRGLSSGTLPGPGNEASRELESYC
# T2: GPR10 (UniProt P49683 1-370, limits assumed)
# T2 sequence (looked up): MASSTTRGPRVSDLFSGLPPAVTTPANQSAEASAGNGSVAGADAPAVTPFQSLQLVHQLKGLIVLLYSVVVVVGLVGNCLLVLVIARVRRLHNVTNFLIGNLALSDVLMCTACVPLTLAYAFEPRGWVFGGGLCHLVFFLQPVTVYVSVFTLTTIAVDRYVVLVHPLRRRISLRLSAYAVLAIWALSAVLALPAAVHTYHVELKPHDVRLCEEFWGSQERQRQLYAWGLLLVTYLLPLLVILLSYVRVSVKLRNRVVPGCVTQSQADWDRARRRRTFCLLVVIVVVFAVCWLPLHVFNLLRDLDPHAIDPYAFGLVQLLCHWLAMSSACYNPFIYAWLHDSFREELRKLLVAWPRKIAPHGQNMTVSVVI
# Target: human GLP-1R (human, UniProt P43220 24-463)
# Assay: cell-based or functional assay
row,Binder,EC50 cAMP 0% FBS [nM]
1,Y[Aib]EGTFTSDYSIYKDKQAA[Aib]KFVNWLLAGGPSSGAPPPS (linker 14-21 via staple K7; reading uncertain) [Conjugate 154],0.03
2,Y[Aib]EGTFTSDYSIYLDKKAA[Aib]EFVKWLLAGGPSSGAPPPS (linker 17-24 via staple K7; reading uncertain) [Conjugate 150],0.06
3,Y[Aib]EGTFTSDYSIYKDKQAA[Aib]KFVNWLLAGGPSSGAPPPS (linker 14-21 via staple K6; reading uncertain) [Conjugate 151],0.03
4,Y[Aib]EGTFTSDYSIYKDKQAA[Aib]KFKNWLKAGGPSSGAPPPS (linker 23-27 via staple K6; reading uncertain) [Conjugate 155],4.08
5,Y[Aib]EGTFTSDYSIYKDKQAA[Aib]KFKNWLKAGGPSSGAPPPS (linker 23-27 via staple K9; reading uncertain) [Conjugate 159],1180
6,"YXEGTFTSDYSIYLDKKAAXEFVKWLLAGGPSSGAPPPS (staple K5 on Lys 17, 24; Aib 2, 20) [Conjugate 139]",0.061
7,"YXEGTFTSDYSIYLDKKAAXEFVKWLLAGGPSSGAPPPS (staple K4 on Lys 17, 24; Aib 2, 20) [Conjugate 140]",0.034
8,Y[Aib]EGTFTSDYSIYLDKKAQ[Aib]AFVKWLIAQGPSSGAPPPS (linker 17-24 via staple K8; reading uncertain) [Conjugate 161],0.4
9,Y[Aib]EGTFTSDYSIYLDKKAA[Aib]EFVKWLLAGGPSSGAPPPS (linker 17-24 via staple K20; reading uncertain) [Conjugate 149],0.05
10,Y[Aib]EGTFTSDYSIYLDKKAA[Aib]EFVKWLLAGGPSSGAPPPS (linker 17-24 via staple K6; reading uncertain) [Conjugate 147],0.07
11,Y[Aib]EGTFTSDYSIYLDKKAQ[Aib]AFVKWLIAQGPSSGAPPPS (linker 17-24 via staple K20; reading uncertain) [Conjugate 162],0.05
12,Y[Aib]EGTFTSDYSIYKDKQAA[Aib]KFVNWLLAGGPSSGAPPPS (linker 14-21 via staple K20; reading uncertain) [Conjugate 153],0.05
13,Y[Aib]EGTFTSDYSIYLDKKAQ[Aib]AFVKWLIAQGPSSGAPPPS (linker 17-24 via staple K9; reading uncertain) [Conjugate 164],0.14
14,Y[Aib]EGTFTSDYSIYLDKKAQ[Aib]AFVKWLIAQGPSSGAPPPS (linker 17-24 via staple K4; reading uncertain) [Conjugate 146],0.11
15,Y[Aib]EGTFTSDYSIYKDKQAA[Aib]KFKNWLKAGGPSSGAPPPS (linker 23-27 via staple K8; reading uncertain) [Conjugate 156],14.6
16,Y[Aib]EGTFTSDYSIYLDKKAA[Aib]EFVKWLLAGGPSSGAPPPS (linker 17-24 via staple K9; reading uncertain) [Conjugate 143],0.068
17,Y[Aib]EGTFTSDYSIYKDKQAA[Aib]KFVNWLLAGGPSSGAPPPS (linker 14-21 via staple K9; reading uncertain) [Conjugate 144],0.012
18,Y[Aib]EGTFTSDYSIYKDKQAA[Aib]KFKNWLKAGGPSSGAPPPS (linker 23-27 via staple K5; reading uncertain) [Conjugate 158],98.3
19,Y[Aib]EGTFTSDYSIYKDKQAA[Aib]KFKNWLKAGGPSSGAPPPS (linker 23-27 via staple K4; not fully specified; reading uncertain) [Conjugate 145],61.4
20,Y[Aib]EGTFTSDYSIYKDKQAA[Aib]KFKNWLKAGGPSSGAPPPS (linker 23-27 via staple K20; reading uncertain) [Conjugate 157],16.4
21,Y[Aib]EGTFTSDYSIYLDKKAA[Aib]EFVKWLLAGGPSSGAPPPS (linker 17-24 via staple K8; reading uncertain) [Conjugate 148],0.46
22,Y[Aib]EGTFTSDYSIYLDKKAQ[Aib]AFVKWLIAQGPSSGAPPPS (linker 17-24 via staple K5; reading uncertain) [Conjugate 163],0.24
23,Y[Aib]EGTFTSDYSIYLDKKAQ[Aib]AFVKWLIAQGPSSGAPPPS (linker 17-24 via staple K6; reading uncertain) [Conjugate 160],0.03

# Target: T1, human GIPR
# Assay: cell-based or functional assay
row,Binder,EC50 cAMP 0% FBS [nM]
1,Y[Aib]EGTFTSDYSIYKDKQAA[Aib]KFVNWLLAGGPSSGAPPPS (linker 14-21 via staple K7; reading uncertain) [Conjugate 154],0.02
2,Y[Aib]EGTFTSDYSIYLDKKAA[Aib]EFVKWLLAGGPSSGAPPPS (linker 17-24 via staple K7; reading uncertain) [Conjugate 150],0.02
3,Y[Aib]EGTFTSDYSIYKDKQAA[Aib]KFVNWLLAGGPSSGAPPPS (linker 14-21 via staple K6; reading uncertain) [Conjugate 151],0.02
4,Y[Aib]EGTFTSDYSIYKDKQAA[Aib]KFKNWLKAGGPSSGAPPPS (linker 23-27 via staple K6; reading uncertain) [Conjugate 155],1.66
5,Y[Aib]EGTFTSDYSIYKDKQAA[Aib]KFKNWLKAGGPSSGAPPPS (linker 23-27 via staple K9; reading uncertain) [Conjugate 159],0.0312
6,"YXEGTFTSDYSIYLDKKAAXEFVKWLLAGGPSSGAPPPS (staple K5 on Lys 17, 24; Aib 2, 20) [Conjugate 139]",0.0026
7,"YXEGTFTSDYSIYLDKKAAXEFVKWLLAGGPSSGAPPPS (staple K4 on Lys 17, 24; Aib 2, 20) [Conjugate 140]",0.0028
8,Y[Aib]EGTFTSDYSIYLDKKAQ[Aib]AFVKWLIAQGPSSGAPPPS (linker 17-24 via staple K8; reading uncertain) [Conjugate 161],0.01
9,Y[Aib]EGTFTSDYSIYLDKKAA[Aib]EFVKWLLAGGPSSGAPPPS (linker 17-24 via staple K20; reading uncertain) [Conjugate 149],0.01
10,Y[Aib]EGTFTSDYSIYLDKKAA[Aib]EFVKWLLAGGPSSGAPPPS (linker 17-24 via staple K6; reading uncertain) [Conjugate 147],0.02
11,Y[Aib]EGTFTSDYSIYLDKKAQ[Aib]AFVKWLIAQGPSSGAPPPS (linker 17-24 via staple K20; reading uncertain) [Conjugate 162],0.02
12,Y[Aib]EGTFTSDYSIYKDKQAA[Aib]KFVNWLLAGGPSSGAPPPS (linker 14-21 via staple K20; reading uncertain) [Conjugate 153],0.01
13,Y[Aib]EGTFTSDYSIYLDKKAQ[Aib]AFVKWLIAQGPSSGAPPPS (linker 17-24 via staple K9; reading uncertain) [Conjugate 164],68.3
14,Y[Aib]EGTFTSDYSIYLDKKAQ[Aib]AFVKWLIAQGPSSGAPPPS (linker 17-24 via staple K4; reading uncertain) [Conjugate 146],0.03
15,Y[Aib]EGTFTSDYSIYKDKQAA[Aib]KFKNWLKAGGPSSGAPPPS (linker 23-27 via staple K8; reading uncertain) [Conjugate 156],2.82
16,Y[Aib]EGTFTSDYSIYLDKKAA[Aib]EFVKWLLAGGPSSGAPPPS (linker 17-24 via staple K9; reading uncertain) [Conjugate 143],0.002
17,Y[Aib]EGTFTSDYSIYKDKQAA[Aib]KFVNWLLAGGPSSGAPPPS (linker 14-21 via staple K9; reading uncertain) [Conjugate 144],0.0022
18,Y[Aib]EGTFTSDYSIYKDKQAA[Aib]KFKNWLKAGGPSSGAPPPS (linker 23-27 via staple K5; reading uncertain) [Conjugate 158],30.5
19,Y[Aib]EGTFTSDYSIYKDKQAA[Aib]KFVNWLLAGGPSSGAPPPS (linker 14-21 via staple K8; not fully specified; reading uncertain) [Conjugate 152],0.05
20,Y[Aib]EGTFTSDYSIYLDKKAA[Aib]EFVKWLLAGGPSSGAPPPS (linker 17-24 via staple K8; reading uncertain) [Conjugate 148],0.03
21,Y[Aib]EGTFTSDYSIYLDKKAQ[Aib]AFVKWLIAQGPSSGAPPPS (linker 17-24 via staple K5; reading uncertain) [Conjugate 163],0.05
22,Y[Aib]EGTFTSDYSIYLDKKAQ[Aib]AFVKWLIAQGPSSGAPPPS (linker 17-24 via staple K6; reading uncertain) [Conjugate 160],7.3

# Target: T2, GPR10
# Assay: cell-based or functional assay
row,Binder,GPR10 EC50 [nM]
1,SRAHQCSMETRTCDINPAWYTGRGIRPVGRF-NH2 (linker 6-13 via L1; reading uncertain) [Conjugate 226],20
2,SRAHQCSMETRTCDINPAWYTGRGIRPVGRF-NH2 (linker 6-13 via L4; reading uncertain) [Conjugate 237],80
3,SRAHQCSMETRTCDINPAWYTGRGIRPVGRF-NH2 (linker 6-13 via L3; reading uncertain) [Conjugate 236],13
4,SRAHQCSMETRTCDINPAWYTGRGIRPVGRF-NH2 (linker 6-13 via L5; reading uncertain) [Conjugate 238],260
5,SRAHQCSMETRTCDINPAWYTGRGIRPVGRF-NH2 (cysteine pairing not given here) [SEQ ID NO 90],29
6,SRAHQHSMETRTPDINPAWYTGRGIRPVGRF-NH2 [SEQ ID NO 107],12

# Target: T2, GPR10
# Assay: cell-based or functional assay
# Remark: another data set of the same source
row,Binder,GPR10 EC50 [nM]
1,SRAHQCSMETRTCDINPAWYTGRGIRPVGRF-NH2 (linker 6-13 via L1; reading uncertain) [Conjugate 226],20
2,SRAHQCSMETRTCDINPAWYTGRGIRPVGRF-NH2 (linker 6-13 via L4; reading uncertain) [Conjugate 237],80
3,SRAHQCSMETRTCDINPAWYTGRGIRPVGRF-NH2 (linker 6-13 via L3; reading uncertain) [Conjugate 236],13
4,SRAHQCSMETRTCDINPAWYTGRGIRPVGRF-NH2 (linker 6-13 via L5; reading uncertain) [Conjugate 238],260
5,SRAHQCSMETRTCDINPAWYTGRGIRPVGRF-NH2 (cysteine pairing not given here) [SEQ ID NO 90],29
6,SRAHQHSMETRTPDINPAWYTGRGIRPVGRF-NH2 [SEQ ID NO 107],12

# Target: T2, GPR10
# Assay: cell-based or functional assay
# Remark: another data set of the same source
Binder,GPR10 EC50 0% FBS [nM],GPR10 EC50 10% FBS [nM]
SRAHQCS[Nle]ETRTCDINPAWYTG[hArg]GIRPVGRF-NH2 (linker 6-13 via L6; reading uncertain) [Conjugate 270],12,42

# Target: human NPFF2R (human, UniProt Q9Y5X5 1-522)
# Sequence (Q9Y5X5 whole entry): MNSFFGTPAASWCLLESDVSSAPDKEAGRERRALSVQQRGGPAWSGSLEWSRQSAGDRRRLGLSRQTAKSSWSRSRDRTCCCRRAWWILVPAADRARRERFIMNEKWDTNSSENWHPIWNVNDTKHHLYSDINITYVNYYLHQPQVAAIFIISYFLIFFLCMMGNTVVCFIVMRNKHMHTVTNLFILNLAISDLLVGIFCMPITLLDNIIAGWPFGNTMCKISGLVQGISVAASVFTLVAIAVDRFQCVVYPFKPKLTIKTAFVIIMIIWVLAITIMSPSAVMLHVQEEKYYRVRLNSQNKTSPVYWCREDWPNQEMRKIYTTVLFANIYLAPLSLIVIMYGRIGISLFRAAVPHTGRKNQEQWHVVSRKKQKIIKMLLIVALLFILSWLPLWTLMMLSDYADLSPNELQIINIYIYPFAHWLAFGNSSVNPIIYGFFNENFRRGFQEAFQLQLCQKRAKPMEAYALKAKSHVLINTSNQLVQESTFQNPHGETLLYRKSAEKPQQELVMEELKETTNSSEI
# Assay: cell-based or functional assay
Binder,NPFF2R EC50 0% FBS [nM],NPFF2R EC50 10% FBS [nM]
SRAHQCS[Nle]ETRTCDINPAWYTG[hArg]GIRPVGRF-NH2 (linker 6-13 via L6; reading uncertain) [Conjugate 270],270,310
